From US10406197B2, “Substances and methods for the use in prevention and/or treatment in Huntington's disease” (AFFIRIS AG, priority 2014, dated 2019)

B1: M1D1: monoclonal antibody, mouse IgM, generated using peptide p7564 as immunogen; VH/VL SEQ ID No. 64/65 (antibody)
VH: MDFGLSWVFFVVFYQGVHCEVQLVESGGGLVQPKGSLKLSCAASGFTFNTYAMNWVRQAPGKGLEWVARIRSKSNNYATYYADSVKDRFTISRDDSQSMLYLQMNNLKTEDTAMYYCVRHGEYGNPWFAYWGQGTLVTVSAESQSFPNVFPL
light: MKLPVRLLVLMFWIPASSSDVVMTQTPLSLPVSLGDQASISCRSSQSLVHSNGNTYLHWYLQKPGQSPKLLIYKVSNRFSGVPDRFSGSGSGTDFTLKISRVEAEDLGVYFCSQSTHVPYTFGGGTKLEIKRADAAPTVSIFPPSSEQLTSGGASVVCFLNNFYPK
modifications: antibody sequence
B2: C6-17: monoclonal antibody, mouse IgG2a, generated by hybridoma technique using peptide p7543 as immunogen; VH/VL SEQ ID No. 60/61 (antibody)
VH: MGWSCIMLFLLSGTAGVLSEVQLQQSGPELVKPGASVKISCKTSGYTFTEYTMHWVKQSHGKSLEWIGGINPNNGGTRYNQKFKGKATLTVDRSSSTAYMELRSLTSEDSAVYYCASLDGRDYWGQGTTLTVSSAKTTAPSVFPLA
light: MVLMLLLLWVSGTCGDIVMSQSPSSLAVSAGEKVTMSCKSSQSLLNSRTRKNYLAWYQQKPGQSPKLLIYWASTRESGVPDRFTGSGSGTDFTLTISSVQAEDLAVYSCKQSYNLLTFGAGTKLELKRADAAPTVSIFPPSSEQLTSGGASVVCFLNNFYPK
modifications: antibody sequence
B3: PRR13: monoclonal antibody, mouse IgG2a, generated by hybridoma technique using peptide p6773 as immunogen; VH/VL SEQ ID No. 62/63 (antibody)
VH: MGWSWVMLFLLSGTGGVLSEVQLQQSAPELVKPGASVKMSCKASGYSFTDFYMKWVKQSHGKGLEWIGDIDPKNGDTFYNQKFKGRATLTVDKSSSTAYMQLNSLTTEDSAVYYCATYYGYTMDYWGQGTSVTVSSAKTTAPSVYPLAPVCGDTTGSSVTLGCLVKGYF
light: MDFQVQIFSFLLISASVIMSRGQIVLTQSPAIMSASLGERVTMTCTASSSVTSSYLHWYQQKPGSSPKLWIYSTSNLASGVPARFSGSGSGTSYSLTISSMEAEDAATYYCHQYRRPPRTFGGGTKLEIKRADAAPTVSIFPPSSEQLTSGGASVVCFLNNFYPR
modifications: antibody sequence

Columns and labels:
[1] = test system: Huntingtin-derived peptides (p6773, p7564, p6776 and caspase region 586 peptides); experiment: Peptide ELISA of hybridoma supernatants and monoclonal antibodies; format: binding, human
Description: Vaccine-induced immune responses in mice were determined by ELISA using heparin as anticoagulant. ELISA plates (Nunc Maxisorb) were coated with maleimide activated BSA as carrier to which Cystein containing peptides were coupled via stable thioether bonds. For titrations, plasma dilutions were added and peptide-specific antibodies were quantified by biotinylated anti-mouse IgG (Southern Biotech, CatNr. 1034-08) as detection antibody combined with Streptavidin-POD (Roche, CatNr. 1089153) and subsequent color reaction using ABTS. EC50 values were determined using curve fitting with a 4-parameter logistic using GraphPad Prism (GraphPad Software).
For the production and isolation of monoclonal antibodies, the ClonaCell-HY Hybridoma Cloning Kit (STEMCELL technologies, CatNr. 28411) was used according to the instructions of the manufacturer. In brief, hybridoma fusions were performed with myeloma cell line SP2-0 under HAT selection and supernatants were initially screened by peptide ELISA using the immunization peptide, respectively, and an irrelevant control peptide for background determination. […] Selected colonies were picked and analyzed by DNA sequencing on an ABI3130xl Genetic Analyzer.

[2] = target: T1, recombinant Huntingtin fragment with free aspartic acid 586 at the C-terminus (HTT586) (Homo sapiens, UniProt P42858); experiment: Protein ELISA with recombinant Huntingtin HTT586 versus HTT610; format: binding; details: protein capture ELISA, normalized to mAB 2166
T1 construct: recombinant Huntingtin fragment with free aspartic acid 586 at the C-terminus
T1 sequence (P42858 1-584): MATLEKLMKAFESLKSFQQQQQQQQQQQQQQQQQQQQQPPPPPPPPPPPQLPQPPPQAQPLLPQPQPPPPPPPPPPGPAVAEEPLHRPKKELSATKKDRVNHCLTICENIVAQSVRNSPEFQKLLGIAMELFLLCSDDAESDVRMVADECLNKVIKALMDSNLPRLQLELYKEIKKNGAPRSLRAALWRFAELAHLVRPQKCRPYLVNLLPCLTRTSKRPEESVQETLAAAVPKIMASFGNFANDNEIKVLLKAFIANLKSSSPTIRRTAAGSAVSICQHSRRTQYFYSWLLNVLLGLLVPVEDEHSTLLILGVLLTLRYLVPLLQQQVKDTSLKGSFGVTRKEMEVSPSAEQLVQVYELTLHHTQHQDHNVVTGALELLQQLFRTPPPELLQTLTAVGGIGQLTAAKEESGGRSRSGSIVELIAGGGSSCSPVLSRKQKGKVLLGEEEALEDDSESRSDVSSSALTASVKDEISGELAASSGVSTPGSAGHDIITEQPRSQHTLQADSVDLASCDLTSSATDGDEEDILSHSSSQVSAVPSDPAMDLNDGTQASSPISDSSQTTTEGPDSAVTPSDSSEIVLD
Description: (§1) Binding of antibodies to N-terminal fragment HTT610 was determined by a standard protein capture ELISA procedure using Maxisorb™ ELISA plates (Thermo; CatNr. 439454), coated with 50 μl of a 1:5000 rabbit anti V5 mAB (Sigma, CatNr. V8137), blocking with blocking buffer (PBS, 1% BSA, 0.1% Tween 20), capturing of recombinant Huntingtin from HEK cell extracts (100 ng/μl total protein) followed by incubation with several dilutions of mouse anti HTT sera (1:100; 1:300 and 1:900) or with mAB2166 as reference (diluted 1:2000; Millipore, Cat Nr. MAB2166) for 1 hour at RT. ELISA incubations, washing and detection procedures were performed according to standard procedures.
FIG. 12: mAB M1D1 specifically recognizes recombinant Huntingtin fragment with free aspartic acid 586 at the C-terminus stronger than uncleaned recHTT610. Protein ELISA (performed as in Example 1) using recombinant Huntingtin with 610 and 586 amino acids length (HTT610 and HTT586, respectively). Values indicate the ratio of the mAB M1D1 signal (OD; protein capture ELISA as explained in Example 1) to the mAB 2166 control antibody signal. Values were normalized to reference mAB 2166 recognizing an internal epitope present in both fragments as protein loading control.

[3] = test system: caspase 6 cleavage of target peptide spanning caspase region 586 of Huntingtin; experiment: In vitro caspase 6 cleavage inhibition assay; format: biochemical, human; details: affinity purified polyclonal antibodies 3 ng/μl, mAB C6-17 10 ng/μl; no protection = 100%
Description: Caspase 6 inhibition assays were performed using Maxisorb ELISA plates (Thermo; 439454) whereby 50 μl of 20 nM BSA-coupled peptide (as indicated in FIG. 18) was coated for 1 hour at RT followed by a one hour treatment with 150 μl blocking buffer (PBS, 1% BSA, 0.1% Tween 20), incubation for 1 hour at RT with affinity purified polyclonal sera (3 ng/μl) or affinity purified mABs (10 ng/μl) as indicated, respectively. After several washes with washing buffer (PBS, 0.1% BSA, 0.1% Tween 20), 5 U Caspase 6 enzyme (Enzo; BML SE170-5000) diluted in 1× Caspase 6 Buffer (BioVision; 1068-80) was added to each well and incubated for 30 min at 37° C. Quantification of the newly exposed epitope generated by caspase 6 peptide cleavage that reflected the extent of caspase accessibility was performed by ELISA as described in Example 1 using peptide p7564-induced antibodies for detection of the free C-terminal aspartic acid-containing epitope.

[4] = target: T2, recombinant 610 amino acids N-terminal Huntingtin fragment (recHTT610) (Homo sapiens, UniProt P42858, DUP37-38); experiment: Protein capture ELISA against recHTT610; format: binding; details: recHTT610 capture ELISA of preselected mAB candidates
T2 construct: the N-terminal 610 aminoacids of human Huntingtin protein extended by two C-terminal V5 tags; made in house; host or cells: HEK293 freestyle cells, transient transfection with precHTT610; NP-40 lysate captured on an anti-V5 coated plate
T2 sequence (P42858 with tags, fused parts or gaps DUP37-38): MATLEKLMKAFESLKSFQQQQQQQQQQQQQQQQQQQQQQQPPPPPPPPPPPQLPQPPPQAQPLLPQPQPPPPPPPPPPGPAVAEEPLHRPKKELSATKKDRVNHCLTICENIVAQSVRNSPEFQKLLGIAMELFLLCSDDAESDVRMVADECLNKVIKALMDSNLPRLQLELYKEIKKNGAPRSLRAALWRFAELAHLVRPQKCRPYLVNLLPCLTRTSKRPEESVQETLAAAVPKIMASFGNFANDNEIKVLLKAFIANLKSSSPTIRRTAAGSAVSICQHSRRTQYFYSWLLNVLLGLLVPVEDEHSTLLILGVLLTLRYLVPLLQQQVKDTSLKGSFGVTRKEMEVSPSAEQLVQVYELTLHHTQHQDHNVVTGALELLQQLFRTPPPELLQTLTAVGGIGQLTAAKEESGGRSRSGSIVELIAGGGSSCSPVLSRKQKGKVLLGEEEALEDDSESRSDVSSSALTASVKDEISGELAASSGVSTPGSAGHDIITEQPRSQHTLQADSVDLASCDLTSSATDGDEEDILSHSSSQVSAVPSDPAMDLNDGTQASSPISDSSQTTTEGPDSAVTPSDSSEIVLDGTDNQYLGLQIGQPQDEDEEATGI
Description: A DNA covering the coding region of the N-terminal 610 aminoacids of human Huntingtin protein extended by two C-terminal V5 tags were synthesized and cloned via XbaI and BamHI restriction sites into eukaryotic expression vector pCDH-EF1-MCS IRES Puro (SBI; CatNr. CD532A1) yielding plasmid precHTT610. Cloning procedures were performed according to standard molecular biology procedures essentially as indicated by manufacturers including restriction digestions and ligation reactions (NEB Quick ligase kit; CatNr. M2200L), bacterial transformation followed by clone selection and analysis. […] Protein concentrations were determined using Qubit (Invitrogen; CatNr.Q32866) according to the manufacturer's instructions.
as §1, with “ELISA incubations, washing and detection procedures were performed according to standard procedures.” left out

[5] = test system: bone marrow derived primary mouse macrophages; experiment: In vitro phagocytosis assay; format: cell-based; details: 5 ng/μl antibodies; p9305 beads for PRR13, p9304 beads for C6-17; versus isotype control mouse IgG2a
Description: Isolation and in vitro differentiation of macrophages was essentially performed as described e.g. in Zhang et al. 2008 [PMID: 19016445]. In brief, tibia- and femur-derived bone marrow cells from 8 to 12 weeks old BALB/c mice were divided onto 2-3 10 cm-cell culture dishes at a density of 20-30×10^6 cells per dish, differentiated 4 days in RPMI/10% FCS+P/S in the presence of 20 ng/ml M-CSF (RD-Systems, Cat-No: 416-ML-010), redistributed at day 5 into 24-well tissue culture plates at a density of 150.000 cells/well until day 9. 24 hrs before phagocytosis, cells were starved in 500 μl RPMI-media+10% FCS+P/S in absence of M-CSF. […] Antibody-coated fluorescent peptide-beads were subsequently added to differentiated macrophages for 1 hr at 37° C. (in a volume of 200 ul containing 0.5 ug beads/well) allowing for in vitro uptake by phagocytosis. After washing and scraping the cells in ice cold PBS, cells were washed in FACS-Buffer (1×PBS+1% BSA) and analysed for fluorescence signal by standard FACS procedure.

Molecule	recognition of caspase region 586 peptides (OD) ([1]; mAB concentration 1 ng/μl, peptides p7564, p7562, p7552, p7541, p7567, p7568, p7605, p6777)	p7564 to p6776 OD signal ratio ([1]; specificity against cleaved peptide p7564, preselected mABs)	recognition of HTT586 versus recHTT610 (ratio of mAB signal to mAB 2166 control signal) [2]	% cleavage of target peptide [3]	signal to noise ratio (recHTT610-specific signal : HEK ctrl extracts) [4]	phagocytosis of peptide-coated beads (FACS) [5]
B1	recognizes Huntingtin peptides from the caspase 6 cleavage region of at least 7AA length containing free C-terminal Aspartic Acid	most favorable	stronger			
B2				reduce cleavage	best signal to noise ratio	increased phagocytosis of beads
B3						increased phagocytosis of beads
